{"source": "patent US20070178531A1", "about": "(BIOCHECK, published 2007)", "binders": {"B1": {"name": "rabbit monoclonal anti-human Id3, clone #BCH-4/#3-3 (antibody, V domains shown)", "VH": "QSVEESGGRLVTPGTPLTLTCTVSGIDLSSYAMSWVRQAPGKGLEWIGVIFPSNNVYYASWAKGRFTISKTSTTVDLKITSPTTEDTATYFCASMGAFDSWGPGTLVTVSS", "VL": "QVLTQTPSPVSAAVGGTVTINCQASQSIYNDNDLAWFQQKPGQPPKLLIYDASTLTSGVPSRFKGSGSGTQFTLTISDLDCDDAATYYCAARYSGNIYGFGGGTEVVVK", "notes": "Rabbit IgG from a rabbit hybridoma; also called h Id3 MoAb 3-3"}, "B2": {"name": "rabbit monoclonal anti-mouse/human Id3, clone #BCH-4/#16-1 (antibody, V domains shown)", "VH": "QSVEESGGRLVTPGTPLTLTCTASGFSLSSYYIHWVRQAPGKALEWIGYISDGGTTYYASWAKGRFTISKTSSTTVDLKMTSLTTEDTATYFCARQGFNIWGPGTLVTVSL", "VL": "AVLTQTPSPVSAAVGGTVTISCQSSQSVYNNNWLSWFQQKSGQPPKLLIYETSKLESGVPSRFKGSGSGTQFTLTIIDVQCDDAATYYCLGGYWTTSDNNIFGGGTEVVVK", "notes": "Rabbit IgG from a rabbit hybridoma; also called m/h Id3 MoAb 16-1"}, "B3": {"name": "rabbit monoclonal anti-mouse/human Id3, clone #BCH-4/#6-1 (antibody, V domains shown)", "VH": "B2 VH with S30N, Y31V, A43G, G54D, T56A, Y57R, S60T, D77N", "VL": "B2 VL with T19S, Y29W, S41P, I77S, I101V", "notes": "Rabbit IgG from a rabbit hybridoma; also called m/h Id3 MoAb 6-1"}, "B4": {"name": "rabbit monoclonal anti-mouse/human Id3, clone #BCH-4/#17-3 (antibody, V domains shown)", "VH": "B2 VH with S30N, Y31V, A43G, G54D, T56A, Y57R, S60T, D77N", "VL": "B2 VL with T19S, Y29W, S41P, I77S, I101V", "notes": "Rabbit IgG from a rabbit hybridoma; also called m/h Id3 MoAb 17-3; BCH-3/#17-3"}, "B5": {"name": "rabbit monoclonal anti-mouse/human Id3, clone #BCH-4/#42-1 (antibody, V domains shown)", "VH": "B2 VH", "VL": "B2 VL with T95S", "notes": "Rabbit IgG from a rabbit hybridoma; also called m/h Id3 MoAb 42-1"}}, "note": "Numbering of substitutions follows the chain as printed."}
{"biological_target": "T1, Mouse Id1: Histidine (mouse, UniProt P20067-2 1-148, limits assumed)", "T1 construct": "Fusion protein made in E. coli from vector pGW07; also called m-Id1-His; not shown: His tag", "T1 sequence (looked up)": "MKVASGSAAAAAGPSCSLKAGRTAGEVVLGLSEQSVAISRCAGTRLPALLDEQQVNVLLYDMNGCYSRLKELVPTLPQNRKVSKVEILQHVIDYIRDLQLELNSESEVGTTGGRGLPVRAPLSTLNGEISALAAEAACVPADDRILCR", "assay": "ELISA, Ab 0.025 µg/ml", "description": "(§1) The rabbit monoclonal anti-human Id3 (clone #3-3) and the rabbit monoclonal anti-mouse/human Id3 (clones #6-1, 16-1, 17-3, and 42-1) produced in Example 6 were tested reactivity against the following antigens: mouse Id1:His, human Id1:His, mouse Id2:His, human Id2:His, mouse Id3:His, human Id3:His, mouse Id4:His, human Id4:His and GST.\n(§2) 1. Microtiter wells (prepared in accordance with Example 6) were coated (0.1 μg/well) with mouse Id1:His, human Id1:His, human Id2:His, human Id3:His, and 1.0 μg/well with GST. [0155] 2. Antibody Diluent: 0.25% (w/v) BSA in 0.015M KPO₄ Buffer, 0.85% (w/v) NaCl, 0.1% (w/v) NaN₃, pH=7.40 [0156] 3. Rabbit monoclonal anti-human Id3 (clone #3-3) prepared in Example 7 was diluted to […] with the antibody diluent. […] 4. Rabbit monoclonal anti-mouse/human Id3 (clones #6-1, 16-1, 17-3, 42-1) prepared in Example 7 was diluted to 0.005, 0.010, 0.025, 0.05, 0.10, 0.25, and 0.50 μg/ml with the antibody diluent. […] 5. Conjugate Diluent: 50% (v/v) which consists of an aqueous solution containing Fetal Bovine Serum in 0.05 M Tris, 1% (v/v) Proclin-300, pH 7.6. [0159] 6. Conjugate: Goat anti-rabbit IgG (H+L)-HRP conjugate. [0160] 7. TMB reagent. […] 8. Stop solution (1 N HCI). Method\n(§3) 1. Dispense 100 μL of antibody diluent, diluted rabbit monoclonal human Id3, and mouse/human Id3 hybridoma supernatants into appropriate wells. […] 2. Incubate at room temperature with mechanical shaking at 750 rpm for 90 minutes. [0165] 3. Remove the incubation mixture by flicking plate content into an appropriate waste container followed by rinsing the wells 5 times with distilled water. [0166] 4. Strike the wells sharply onto absorbent paper or paper towels to remove all residual water droplets. [0167] 5. Dispense 100 μL of 1:50,000 Goat Anti-Rabbit IgG-HRP Conjugate Reagent into each well. Gently mix for 5 seconds. [0168] 6. Incubate at room temperature with mechanical shaking at 750 rpm for 90 minutes. [0169] 7. Repeat procedures 3 and 4. [0170] 8. Dispense 100 μL of TMB Reagent into each well. Gently mix for 5 seconds. [0171] 9. Incubate at room temperature with mechanical shaking at 750 rpm for 20 minutes. […] 10.", "units": {"A450": "A450"}}
{"binder": "B1", "A450": 0.044}
{"binder": "B2", "A450": 0.044}
{"binder": "B3", "A450": 0.046}
{"binder": "B4", "A450": 0.045}
{"binder": "B5", "A450": 0.045}
{"biological_target": "T2, Human Id1: Histidine (human, UniProt P41134 1-155, limits assumed)", "T2 construct": "Fusion protein made in E. coli from vector pGW07; also called h-Id1: his; not shown: His tag", "T2 sequence (looked up)": "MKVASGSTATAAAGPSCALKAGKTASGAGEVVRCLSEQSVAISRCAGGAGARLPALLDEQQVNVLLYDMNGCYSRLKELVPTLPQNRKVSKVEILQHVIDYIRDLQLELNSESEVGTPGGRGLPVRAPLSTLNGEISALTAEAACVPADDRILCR", "assay": "ELISA, Ab 0.025 µg/ml", "description": "as §1, §2, §3", "units": {"A450": "A450"}}
{"binder": "B1", "A450": 0.049}
{"binder": "B2", "A450": 0.046}
{"binder": "B3", "A450": 0.048}
{"binder": "B4", "A450": 0.047}
{"binder": "B5", "A450": 0.043}
{"biological_target": "T3, Mouse Id3: Histidine (mouse, UniProt P41133 1-119)", "T3 construct": "Fusion protein made in E. coli from vector pGW07; also called m-Id3: His; Mouse Id3 (coated wells); not shown: His tag", "T3 sequence": "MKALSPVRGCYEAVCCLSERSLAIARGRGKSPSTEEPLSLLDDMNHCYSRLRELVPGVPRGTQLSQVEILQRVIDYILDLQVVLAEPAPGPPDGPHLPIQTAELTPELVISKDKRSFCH", "assay": "ELISA, Ab 0.025 µg/ml", "description": "as §1, §2, §3", "units": {"A450": "A450"}}
{"binder": "B2", "A450": 0.953}
{"binder": "B3", "A450": 1.13}
{"binder": "B4", "A450": 1.4}
{"binder": "B5", "A450": 1.58}
{"biological_target": "T4, Human Id2: Histidine (human, UniProt Q02363 1-134, limits assumed)", "T4 construct": "Fusion protein made in E. coli from vector pGW07; also called h-Id2: His; not shown: His tag", "T4 sequence (looked up)": "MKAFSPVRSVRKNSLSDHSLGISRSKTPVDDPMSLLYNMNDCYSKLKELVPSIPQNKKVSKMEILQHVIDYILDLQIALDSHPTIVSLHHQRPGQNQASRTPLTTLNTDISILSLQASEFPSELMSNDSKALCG", "assay": "ELISA, Ab 0.025 µg/ml", "description": "as §1, §2, §3", "units": {"A450": "A450"}}
{"binder": "B1", "A450": 0.044}
{"binder": "B2", "A450": 0.045}
{"binder": "B3", "A450": 0.045}
{"binder": "B4", "A450": 0.054}
{"binder": "B5", "A450": 0.071}
{"biological_target": "T5, Mouse Id2: Histidine (mouse, UniProt P41136 1-134, limits assumed)", "T5 construct": "Fusion protein made in E. coli from vector pGW07; also called m-Id2: His; not shown: His tag", "T5 sequence (looked up)": "T4 sequence (looked up) with S60T, A131V", "assay": "ELISA, Ab 0.025 µg/ml", "description": "as §1, §2, §3", "units": {"A450": "A450"}}
{"binder": "B1", "A450": 0.048}
{"binder": "B2", "A450": 0.051}
{"binder": "B3", "A450": 0.048}
{"binder": "B4", "A450": 0.05}
{"binder": "B5", "A450": 0.052}
{"biological_target": "T1, Mouse Id1: Histidine", "assay": "ELISA, Ab 0.500 µg/ml", "description": "as §1, §2, §3", "units": {"A450": "A450"}}
{"binder": "B1", "A450": 0.05}
{"binder": "B2", "A450": 0.047}
{"binder": "B3", "A450": 0.051}
{"binder": "B4", "A450": 0.06}
{"binder": "B5", "A450": 0.053}
{"biological_target": "T3, Mouse Id3: Histidine", "assay": "ELISA, Ab 0.500 µg/ml", "description": "as §1, §2, §3", "units": {"A450": "A450"}}
{"binder": "B2", "A450": 3.61}
{"binder": "B3", "A450": 3.81}
{"binder": "B4", "A450": 3.74}
{"binder": "B5", "A450": 3.63}
{"biological_target": "T6, glutathione S-transferase (GST) (UniProt P08515 1-218 = GST)", "T6 construct": "also called carrier protein GST", "T6 sequence (P08515 whole entry)": "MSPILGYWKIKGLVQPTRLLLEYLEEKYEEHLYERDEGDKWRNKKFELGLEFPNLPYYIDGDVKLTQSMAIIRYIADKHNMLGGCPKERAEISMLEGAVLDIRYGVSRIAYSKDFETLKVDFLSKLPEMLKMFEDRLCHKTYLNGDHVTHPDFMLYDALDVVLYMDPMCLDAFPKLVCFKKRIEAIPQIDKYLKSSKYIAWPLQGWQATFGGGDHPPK", "assay": "ELISA, Ab 0.500 µg/ml", "description": "as §1, §2, §3", "units": {"A450": "A450"}}
{"binder": "B1", "A450": 0.05}
{"binder": "B2", "A450": 0.053}
{"binder": "B3", "A450": 0.054}
{"binder": "B4", "A450": 0.053}
{"binder": "B5", "A450": 0.049}
{"biological_target": "T4, Human Id2: Histidine", "assay": "ELISA, Ab 0.500 µg/ml", "description": "as §1, §2, §3", "units": {"A450": "A450"}}
{"binder": "B1", "A450": 0.047}
{"binder": "B2", "A450": 0.058}
{"binder": "B3", "A450": 0.063}
{"binder": "B4", "A450": 0.053}
{"binder": "B5", "A450": 0.057}
{"biological_target": "T5, Mouse Id2: Histidine", "assay": "ELISA, Ab 0.500 µg/ml", "description": "as §1, §2, §3", "units": {"A450": "A450"}}
{"binder": "B1", "A450": 0.05}
{"binder": "B2", "A450": 0.067}
{"binder": "B3", "A450": 0.066}
{"binder": "B4", "A450": 0.069}
{"binder": "B5", "A450": 0.075}
{"biological_target": "T7, Human Id3: Histidine (human, UniProt Q02535 1-119 at identity 1.00))", "T7 construct": "Fusion protein made in E. coli from vector pGW07; also called h-Id3: His; Human Id3 (coated wells); not shown: His tag", "T7 chain": "T3 sequence with S31G, S33A, T34A, T105A, K112N", "assay": "ELISA, Ab 0.500 µg/ml", "description": "as §1, §2, §3", "units": {"A450": "A450"}}
{"binder": "B2", "A450": 3.37}
{"binder": "B3", "A450": 3.56}
{"binder": "B4", "A450": 3.69}
{"binder": "B5", "A450": 3.75}
